Test results from the supplement of paper PMC10065799, “High-throughput profiling of sequence recognition by tyrosine kinases and SH2 domains using bacterial peptide display” (eLife, 2023).

target: MERTK (UniProt Q12866); test: phosphorylation enrichment, bacterial display (enrichment ratio); higher = better substrate or ligand; peptides without Tyr show the background
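Also: 11-residue human phosphosite peptides and single-mutation variants displayed on the E. coli surface, counted by deep sequencing, each peptide's frequency after selection divided by its frequency in the unselected input library; frequency after pTyr selection over input frequency; kinase dosed for 20-30% of maximal phosphorylation in three min.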

MERTK, sequence (Q12866 whole entry, looked up): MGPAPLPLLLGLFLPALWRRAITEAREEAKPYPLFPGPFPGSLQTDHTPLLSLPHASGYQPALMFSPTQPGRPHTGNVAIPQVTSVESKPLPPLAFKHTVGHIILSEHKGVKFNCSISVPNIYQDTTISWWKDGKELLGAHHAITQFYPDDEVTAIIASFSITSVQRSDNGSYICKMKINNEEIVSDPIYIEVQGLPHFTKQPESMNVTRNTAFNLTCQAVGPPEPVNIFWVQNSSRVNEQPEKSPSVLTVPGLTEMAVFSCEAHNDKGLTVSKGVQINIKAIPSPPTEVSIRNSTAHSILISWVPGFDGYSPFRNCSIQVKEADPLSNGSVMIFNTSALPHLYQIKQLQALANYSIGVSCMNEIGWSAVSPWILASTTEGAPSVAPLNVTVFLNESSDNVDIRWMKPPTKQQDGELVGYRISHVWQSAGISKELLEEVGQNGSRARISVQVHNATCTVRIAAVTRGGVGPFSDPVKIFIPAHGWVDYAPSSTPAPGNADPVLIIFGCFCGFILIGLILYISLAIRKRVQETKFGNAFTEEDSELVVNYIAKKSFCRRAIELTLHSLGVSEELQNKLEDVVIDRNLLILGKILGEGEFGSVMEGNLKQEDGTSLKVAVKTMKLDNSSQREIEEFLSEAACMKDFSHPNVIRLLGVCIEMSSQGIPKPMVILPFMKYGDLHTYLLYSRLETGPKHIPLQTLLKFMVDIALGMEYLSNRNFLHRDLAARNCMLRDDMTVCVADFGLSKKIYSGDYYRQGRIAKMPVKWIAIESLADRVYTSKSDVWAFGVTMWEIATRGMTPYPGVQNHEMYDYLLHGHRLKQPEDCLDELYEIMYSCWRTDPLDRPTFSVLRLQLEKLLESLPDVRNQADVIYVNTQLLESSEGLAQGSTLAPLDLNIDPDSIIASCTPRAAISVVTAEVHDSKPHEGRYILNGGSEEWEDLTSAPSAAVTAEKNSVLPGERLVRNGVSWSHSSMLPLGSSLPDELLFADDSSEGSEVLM

Sequence	phosphorylation enrichment
QRRLVYYERGA [RYR1_Y245_G248R]	0.319
SCRSKYVGLWG [KCNQ1_Y184_G179S]	0.451
RFLERYIYNRQ [HLA-DPB1_Y57_E62Q]	0.732
GRTPLYMDRQG [AGXT_Y194_G190R]	0.432
STEAIYWRYSK [SH3PXD2B_Y42_R43W]	1.34
KGEPQYSSHSS [SIPA1L3_Y1265]	0.429
IPTPAYQSSPA [PDCD6IP_Y727]	0.356
SSMIDYNPLEK [MYOC_Y479]	0.463
HCHEGYILHGA [SVEP1_Y2921]	0.945
ENGPYYTSYPP [GDAP2_Y488]	5.54
PLLTDYSPQLQ [OTC_Y345_S340P]	0.965
VDSGVYAVPPP [BCAR1_Y410]	9.97
ATPKGYELDAS [OTC_Y223_P225L]	0.491
GHPFAYDWISI [BEST1_Y227_L224P_YF]	6.57
GIMEEYQLPYY [BMPR1A_Y453_V450M]	0.398
IKSSIYDNRKE [ARAP2_Y380]	0.416
GGQSVYHVNLH [HINT1_Y109_H112N]	0.387

Sequence	phosphorylation enrichment
HEKFLYFLPAS [DYNC2H1_Y346]	3.9
TMKSHYMELYD [BBS2_Y644_R643H]	1.34
PGPPGYCDSSQ [COL12A1_Y3043]	0.505
VLTSKYPGGGG [HBA1_Y141_R142P]	0.392
TQKLAYMELQQ [CENPF_Y700]	0.527
FGMSTYITRED [FNDC3B_Y180_YF]	0.437
DSFWSYCNAVA [SLC20A2_Y436_S434W_YF]	0.421
MGSYNYLGFAW [SPTLC2_Y178_R183W]	3.65
KAIMTYVSSFF [ACTN4_Y260_YF]	0.494
GMRHGYGVRQS [JPH2_Y141]	0.384
PFWKLYESVKK [MKI67_Y241]	0.966
LAGRFYALKSM [CKB_Y174_YF]	0.666
ENAGFYFQVSA	0.333
NPQKPYFIRLY [WAS_Y83_S82P]	0.344
DVLEFYNSKKT [PAK1_Y131]	0.405
GIKAAYEAERG [LMNA_Y81_L85R]	0.347

target: Hck (UniProt P08631); test: as above
Sequence (P08631 whole entry, looked up): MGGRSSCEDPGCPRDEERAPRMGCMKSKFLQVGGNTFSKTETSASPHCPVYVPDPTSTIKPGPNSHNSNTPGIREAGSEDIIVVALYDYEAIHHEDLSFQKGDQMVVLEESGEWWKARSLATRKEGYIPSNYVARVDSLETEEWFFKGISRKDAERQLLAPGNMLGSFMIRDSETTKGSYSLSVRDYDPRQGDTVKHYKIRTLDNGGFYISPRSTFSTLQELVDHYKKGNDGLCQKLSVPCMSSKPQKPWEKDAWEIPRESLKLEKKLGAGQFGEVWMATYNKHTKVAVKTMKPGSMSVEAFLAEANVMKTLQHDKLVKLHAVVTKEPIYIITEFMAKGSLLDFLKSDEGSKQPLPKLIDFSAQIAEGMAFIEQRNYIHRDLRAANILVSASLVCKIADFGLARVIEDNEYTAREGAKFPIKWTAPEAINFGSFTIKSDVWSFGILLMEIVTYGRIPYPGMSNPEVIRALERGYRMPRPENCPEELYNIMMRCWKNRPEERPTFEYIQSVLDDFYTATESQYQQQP

Sequence	phosphorylation enrichment
QRRLVYYERGA [RYR1_Y245_G248R]	0.53
SCRSKYVGLWG [KCNQ1_Y184_G179S]	0.423
RFLERYIYNRQ [HLA-DPB1_Y57_E62Q]	0.786
GRTPLYMDRQG [AGXT_Y194_G190R]	0.702
STEAIYWRYSK [SH3PXD2B_Y42_R43W]	3.66
KGEPQYSSHSS [SIPA1L3_Y1265]	0.295
IPTPAYQSSPA [PDCD6IP_Y727]	0.38
SSMIDYNPLEK [MYOC_Y479]	0.512
HCHEGYILHGA [SVEP1_Y2921]	0.827
ENGPYYTSYPP [GDAP2_Y488]	2.14
PLLTDYSPQLQ [OTC_Y345_S340P]	0.951
VDSGVYAVPPP [BCAR1_Y410]	8.02
ATPKGYELDAS [OTC_Y223_P225L]	0.442
GHPFAYDWISI [BEST1_Y227_L224P_YF]	0.811
GIMEEYQLPYY [BMPR1A_Y453_V450M]	0.998
IKSSIYDNRKE [ARAP2_Y380]	0.753
GGQSVYHVNLH [HINT1_Y109_H112N]	0.583

Sequence	phosphorylation enrichment
HEKFLYFLPAS [DYNC2H1_Y346]	2.12
TMKSHYMELYD [BBS2_Y644_R643H]	0.953
PGPPGYCDSSQ [COL12A1_Y3043]	0.639
VLTSKYPGGGG [HBA1_Y141_R142P]	0.296
TQKLAYMELQQ [CENPF_Y700]	0.52
FGMSTYITRED [FNDC3B_Y180_YF]	0.743
DSFWSYCNAVA [SLC20A2_Y436_S434W_YF]	0.569
MGSYNYLGFAW [SPTLC2_Y178_R183W]	1.4
KAIMTYVSSFF [ACTN4_Y260_YF]	0.531
GMRHGYGVRQS [JPH2_Y141]	0.36
PFWKLYESVKK [MKI67_Y241]	4.34
LAGRFYALKSM [CKB_Y174_YF]	0.509
ENAGFYFQVSA	0.304
NPQKPYFIRLY [WAS_Y83_S82P]	0.443
DVLEFYNSKKT [PAK1_Y131]	0.518
GIKAAYEAERG [LMNA_Y81_L85R]	0.406

target: Fes (UniProt P07332); test: as above
Sequence (P07332 whole entry, looked up): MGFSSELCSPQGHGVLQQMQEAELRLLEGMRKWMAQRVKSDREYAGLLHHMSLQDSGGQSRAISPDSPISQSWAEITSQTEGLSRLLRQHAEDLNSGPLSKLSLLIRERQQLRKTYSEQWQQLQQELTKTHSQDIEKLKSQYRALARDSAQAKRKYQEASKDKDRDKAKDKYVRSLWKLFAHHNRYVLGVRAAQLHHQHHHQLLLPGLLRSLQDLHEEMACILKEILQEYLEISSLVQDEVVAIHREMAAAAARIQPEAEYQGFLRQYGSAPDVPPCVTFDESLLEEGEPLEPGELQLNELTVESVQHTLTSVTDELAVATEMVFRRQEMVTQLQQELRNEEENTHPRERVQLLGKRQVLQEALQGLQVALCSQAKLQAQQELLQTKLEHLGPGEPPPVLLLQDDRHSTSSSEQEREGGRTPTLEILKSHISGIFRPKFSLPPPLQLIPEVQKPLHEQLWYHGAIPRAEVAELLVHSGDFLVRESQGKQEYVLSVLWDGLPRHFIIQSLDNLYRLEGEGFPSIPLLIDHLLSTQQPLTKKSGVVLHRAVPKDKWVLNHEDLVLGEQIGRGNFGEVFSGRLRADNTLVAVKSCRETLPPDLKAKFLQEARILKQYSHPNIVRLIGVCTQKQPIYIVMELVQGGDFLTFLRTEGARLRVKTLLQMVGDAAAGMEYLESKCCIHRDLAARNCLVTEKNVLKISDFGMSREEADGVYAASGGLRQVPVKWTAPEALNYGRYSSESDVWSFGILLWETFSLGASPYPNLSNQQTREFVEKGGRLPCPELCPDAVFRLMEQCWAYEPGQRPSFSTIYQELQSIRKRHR

Sequence	phosphorylation enrichment
QRRLVYYERGA [RYR1_Y245_G248R]	0.537
SCRSKYVGLWG [KCNQ1_Y184_G179S]	0.984
RFLERYIYNRQ [HLA-DPB1_Y57_E62Q]	1.06
GRTPLYMDRQG [AGXT_Y194_G190R]	0.498
STEAIYWRYSK [SH3PXD2B_Y42_R43W]	1.28
KGEPQYSSHSS [SIPA1L3_Y1265]	0.547
IPTPAYQSSPA [PDCD6IP_Y727]	0.674
SSMIDYNPLEK [MYOC_Y479]	0.945
HCHEGYILHGA [SVEP1_Y2921]	1.78
ENGPYYTSYPP [GDAP2_Y488]	0.83
PLLTDYSPQLQ [OTC_Y345_S340P]	1.9
VDSGVYAVPPP [BCAR1_Y410]	0.795
ATPKGYELDAS [OTC_Y223_P225L]	0.903
GHPFAYDWISI [BEST1_Y227_L224P_YF]	1.22
GIMEEYQLPYY [BMPR1A_Y453_V450M]	1.4
IKSSIYDNRKE [ARAP2_Y380]	0.725
GGQSVYHVNLH [HINT1_Y109_H112N]	0.617

Sequence	phosphorylation enrichment
HEKFLYFLPAS [DYNC2H1_Y346]	1.8
TMKSHYMELYD [BBS2_Y644_R643H]	1.01
PGPPGYCDSSQ [COL12A1_Y3043]	1.41
VLTSKYPGGGG [HBA1_Y141_R142P]	0.443
TQKLAYMELQQ [CENPF_Y700]	0.907
FGMSTYITRED [FNDC3B_Y180_YF]	1.11
DSFWSYCNAVA [SLC20A2_Y436_S434W_YF]	1.31
MGSYNYLGFAW [SPTLC2_Y178_R183W]	0.937
KAIMTYVSSFF [ACTN4_Y260_YF]	0.821
GMRHGYGVRQS [JPH2_Y141]	0.556
PFWKLYESVKK [MKI67_Y241]	1.39
LAGRFYALKSM [CKB_Y174_YF]	1.61
ENAGFYFQVSA	1.15
NPQKPYFIRLY [WAS_Y83_S82P]	1.08
DVLEFYNSKKT [PAK1_Y131]	1.38
GIKAAYEAERG [LMNA_Y81_L85R]	0.755

target: EPHB1 (UniProt P54762); test: as above
Sequence (P54762 whole entry, looked up): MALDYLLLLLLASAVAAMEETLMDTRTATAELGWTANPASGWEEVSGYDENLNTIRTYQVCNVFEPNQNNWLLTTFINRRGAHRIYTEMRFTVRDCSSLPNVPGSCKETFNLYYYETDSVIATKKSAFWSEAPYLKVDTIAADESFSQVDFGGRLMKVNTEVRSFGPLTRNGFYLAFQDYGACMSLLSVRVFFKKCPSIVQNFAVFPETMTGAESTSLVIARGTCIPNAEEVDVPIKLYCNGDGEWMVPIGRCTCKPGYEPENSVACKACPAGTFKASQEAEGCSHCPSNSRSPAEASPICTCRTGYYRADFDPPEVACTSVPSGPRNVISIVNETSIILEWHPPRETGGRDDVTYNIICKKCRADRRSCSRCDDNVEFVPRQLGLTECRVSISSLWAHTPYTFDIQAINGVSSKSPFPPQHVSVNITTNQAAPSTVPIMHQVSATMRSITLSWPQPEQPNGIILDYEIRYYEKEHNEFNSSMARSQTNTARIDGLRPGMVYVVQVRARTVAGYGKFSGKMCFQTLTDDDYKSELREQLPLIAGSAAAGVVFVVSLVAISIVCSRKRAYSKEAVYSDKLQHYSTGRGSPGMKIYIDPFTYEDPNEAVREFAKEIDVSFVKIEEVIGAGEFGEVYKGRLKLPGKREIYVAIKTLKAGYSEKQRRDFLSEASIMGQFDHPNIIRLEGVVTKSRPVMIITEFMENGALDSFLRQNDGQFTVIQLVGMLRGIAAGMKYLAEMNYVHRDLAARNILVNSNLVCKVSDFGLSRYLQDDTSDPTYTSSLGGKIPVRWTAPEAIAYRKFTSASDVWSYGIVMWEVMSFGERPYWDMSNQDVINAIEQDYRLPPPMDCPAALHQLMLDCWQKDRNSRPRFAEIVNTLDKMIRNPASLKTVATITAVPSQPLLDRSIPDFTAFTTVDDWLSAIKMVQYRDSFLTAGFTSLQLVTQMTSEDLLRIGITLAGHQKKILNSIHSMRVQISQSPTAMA

Sequence	phosphorylation enrichment
QRRLVYYERGA [RYR1_Y245_G248R]	0.448
SCRSKYVGLWG [KCNQ1_Y184_G179S]	0.39
RFLERYIYNRQ [HLA-DPB1_Y57_E62Q]	1.04
GRTPLYMDRQG [AGXT_Y194_G190R]	0.452
STEAIYWRYSK [SH3PXD2B_Y42_R43W]	1.44
KGEPQYSSHSS [SIPA1L3_Y1265]	0.327
IPTPAYQSSPA [PDCD6IP_Y727]	0.452
SSMIDYNPLEK [MYOC_Y479]	0.517
HCHEGYILHGA [SVEP1_Y2921]	1.27
ENGPYYTSYPP [GDAP2_Y488]	0.658
PLLTDYSPQLQ [OTC_Y345_S340P]	1.11
VDSGVYAVPPP [BCAR1_Y410]	7.54
ATPKGYELDAS [OTC_Y223_P225L]	0.442
GHPFAYDWISI [BEST1_Y227_L224P_YF]	0.932
GIMEEYQLPYY [BMPR1A_Y453_V450M]	0.748
IKSSIYDNRKE [ARAP2_Y380]	0.307
GGQSVYHVNLH [HINT1_Y109_H112N]	0.495

Sequence	phosphorylation enrichment
HEKFLYFLPAS [DYNC2H1_Y346]	1.72
TMKSHYMELYD [BBS2_Y644_R643H]	0.971
PGPPGYCDSSQ [COL12A1_Y3043]	0.914
VLTSKYPGGGG [HBA1_Y141_R142P]	0.229
TQKLAYMELQQ [CENPF_Y700]	0.482
FGMSTYITRED [FNDC3B_Y180_YF]	0.776
DSFWSYCNAVA [SLC20A2_Y436_S434W_YF]	0.76
MGSYNYLGFAW [SPTLC2_Y178_R183W]	3.69
KAIMTYVSSFF [ACTN4_Y260_YF]	0.57
GMRHGYGVRQS [JPH2_Y141]	0.38
PFWKLYESVKK [MKI67_Y241]	6.75
LAGRFYALKSM [CKB_Y174_YF]	0.677
ENAGFYFQVSA	0.483
NPQKPYFIRLY [WAS_Y83_S82P]	0.561
DVLEFYNSKKT [PAK1_Y131]	0.517
GIKAAYEAERG [LMNA_Y81_L85R]	0.344
